Experimental data taken from patent publication US10081667B2, “Composition and method for therapeutic agent delivery during pregnancy” (University of Mississippi Medical Center, priority 2013, dated 2018).
Like-named read-outs stand apart in the source and are kept apart here. Where no end group is shown, it is not given here.

What was measured:
[1] = Pharmacokinetics and biodistribution of SynB1-ELP-p50 versus free p50 peptide in pregnant rats
[2] = test system: human umbilical vein endothelial cells (HUVECs); assay: HUVEC proliferation, MTS cell proliferation assay; type: cell-based; conditions: 72 h exposure
Protocol: FIG. 9 is a bar graph showing ELP-VEGF stimulation of HUVEC proliferation. HUVEC cell proliferation was determined after 72 h exposure to ELP, VEGF, or ELP-VEGF at the indicated concentrations using the MTS cell proliferation assay.
Proliferation of human umbilical vein endothelial cells (HUVECs) is stimulated when the cell are exposed to VEGF.

[3] = ELP-VEGF pharmacokinetics and biodistribution in mice after bolus IV; type: in vivo, C57/B16 mice
Protocol: FIG. 12 includes graphs showing ELP-VEGF pharmacokinetics and biodistribution. FIG. 12A. Fluorescently labeled free VEGF or ELP-VEGF were administered by IV injection to C57/B16 mice. Plasma levels were determined by direct fluorescence quantitation and fit to a two-compartment pharmacokinetic model. FIG. 12B. […] FIG. 12D.
In addition to examining the ELP-VEGF activity in vitro, the pharmacokinetics (PK) and biodistribution of ELP-VEGF in comparison to free VEGF121 is also determined. Both free VEGF121 and ELP-VEGF were fluorescently labeled, and their PK and biodistribution were determined in mice after bolus intravenous administration. […] This is consistent with other reports of approximately a 30 minute half-life for recombinant VEGF in humans. ELP-VEGF cleared more slowly than free VEGF121 (FIG. 12A). […] Four hours after the infusion, the biodistribution was determined by ex vivo whole organ fluorescence imaging.

[4] = test system: trophoblast cells; conditions: rat, in vivo
[5] = Biodistribution of fluorescently labeled ELP / SynB1-ELP in pregnant rats after IV bolus (ex vivo imaging, frozen sections); design: species or system Sprague Dawley rats
Protocol: FIG. 2 includes a series of images and a graph showing the biodistribution of ELP in pregnant rats. FIG. 2A. The ELP drug carrier was labeled with AlexalFluor633 and infused into normal pregnant Sprague Dawley rats by IV injection (100 mg/kg). 4 h after injection, ex vivo images of placentas, pups, and major organs were collected using an IVIS Spectrum. FIG. 2B. Fluorescence intensity was quantified in all tissues. Error bars represent the standard deviation of 3 rats.
FIG. 3 includes a series of images and a graph illustrating placental distribution of ELP and SynB1-ELP. FIG. 3A. After IV administration of fluorescently-labeled polypeptides or saline control, placentas, pups, and major organs were removed and imaged ex vivo using an IVIS Spectrum. Polypeptide deposition in placentas and pups is shown. FIG. 3B. Fluorescence levels in placentas, pups, and major organs was quantified using Living Image software. Error bars represent the standard deviation of four rats per treatment group. FIG. 3C. Frozen sections of intact placentas and pups were cut, stained with the actin-specific rhodamine-phalloidin to allow visualization of the placenta and pups, and scanned using a florescence slide scanner. FIG. 3D. The same slides were imaged using a florescence microscope to visualize the cellular localization of the polypeptides in the placenta (100× magnification).
Pregnant Sprague Dawley rats on day 14 of gestation were injected with fluorescently labeled ELP (100 mg/kg IV). […] Placentas and pups were dissected from the amniotic sacks and imaged ex vivo using an IVIS Spectrum animal imager to detect and quantitate the ELP levels. […] In contrast, almost no ELP was detectable in the pups. The image intensities of the placentas, pups, and major organs were quantitated using Living Image software, and the results are shown in FIG. 2B. […] These high ELP levels in the placenta are unprecedented with this molecule. By way of comparison, the placenta levels are 2 to 10 fold higher than the tumors levels (Bidwell G L, et al., PloS One, 2013; Bidwell G L, 3rd, Cancer Lett., 2012).
This example also examined whether the addition of a CPP to ELP would affect its penetration across the placenta. SynB1-ELP was labeled with Alexa633 and injected as described above. For comparison, animals were injected with saline control or ELP-Alexa633 at an equivalent dose. Four hours after injection, placental, fetal, and organ levels were determined by ex vivo fluorescence imaging. […] In addition to the ex vivo fluorescence imaging, the fetal-amnio-placental complex was removed, rapidly frozen, and sectioned using a cryomicrotome. Tissue sections were stained with the actin-specific rhodamine-phalloidin to allow visualization of all tissue and imaged directly using a fluorescence slide scanner. […] The intraplacental distribution SynB1-ELP-Alexa633 differed slightly from ELP-Alexa633. […] Both polypeptides could be detected within the cells of the placenta when examined microscopically (FIG. 3D).

[6] = rat, in vivo
[7] = Plasma levels and biodistribution after chronic infusion by IP minipump GD14-GD19; type: in vivo, rats
Protocol: FIG. 7 includes images and graphs showing plasma levels and biodistribution of FLPs after Chronic Infusion. FIG. 7A. Rhodamine-labeled ELP or SynB1-ELP was administered chronically by IP minipump from GD14-GD19. Plasma was sampled throughout the experiment, and polypeptide levels were determined relative to standards of the injected protein. Data represent the mean±s.d. of four rats per group. FIG. 7B. Ex vivo fluorescence imaging of eight pups and corresponding placentas from one rat from each group is shown. FIG. 7C. Fluorescence intensities were quantified, corrected for autofluorescence, and fit to standards of the injected proteins. Data represent the mean±s.e. of eight placentas and eight pups per rat and four rats per group. *Statistically significant as determined by a two-way ANOVA with post-hoc Bonferroni multiple comparisons (p<0.05). **Levels were not detectable over autofluorescence.
Whether the fetal exclusion held after five days of continuous infusion of the polypeptides is also examined. ELP or SynB1-ELP was administered continuously from GD14 to GD19 using an IP minipump. […] At the dose used (30 mg/kg/day), the plasma levels were maintained at 33.94 μg/mL for ELP and 69.15 μg/mL for SynB1-ELP. These plasma levels are a reflection of many in vivo kinetic processes, including the rate of transport from the peritoneal fluid to the blood, the rate of extravasation from the blood to the tissues, and the plasma clearance rate. […] These plasma concentration data also provide useful information for the formulation of dosages when ELP is fused with therapeutic agents.
Ex vivo whole organ fluorescence analysis of the placentas is performed, pups, and organs on GD19 following five days of continuous polypeptide infusion. Relative to the acute experiment, the placental levels of the polypeptides were lower, which resulted from the difference in dose (100 mg/kg in the bolus dosing versus 30 mg/kg/day in the chronic infusion). […] The kidneys still accumulated the most polypeptide, followed by the liver and the placenta (FIG. 7C). […]

[8] = rat, in vivo; remark: listed apart in the source

VQRKRQKLMP [p50 peptide]
initial plasma levels relative to SynB1-ELP-p50 levels ([1]; 100 mg/kg single bolus, pregnant rats): about 100 fold lower
entry into fetal circulation / pups ([1]; four hours after injection): freely entered the fetal circulation and was visible in the pups
total placental levels relative to SynB1-ELP-p50 ([1]; four hours after injection): thirty fold lower

B1: VEGF121: free recombinant vascular endothelial growth factor VEGF121, comparator (protein)
chain: MSKGPGVGVPGAGVPGGGVPGAGVPGGGVPGAGVPGGGVPGAGVPGGGVPGAGVPGGGVPGAGVPGGGVPGAGVPGGGVPGAGVPGVGVPGAGVPGGGVPGAGVPGGGVPGAGVPGGGVPGAGVPGGGVPGAGVPGGGVPGAGVPGGGVPGAGVPGGGVPGAGVPGVGVPGAGVPGGGVPGAGVPGGGVPGAGVPGGGVPGAGVPGGGVPGAGVPGGGVPGAGVPGGGVPGAGVPGGGVPGAGVPGVGVPGAGVPGGGVPGAGVPGGGVPGAGVPGGGVPGAGVPGGGVPGAGVPGGGVPGAGVPGGGVPGAGVPGGGVPGAGVPGVGVPGAGVPGGGVPGAGVPGGGVPGAGVPGGGVPGAGVPGGGVPGAGVPGGGVPGAGVPGGGVPGAGVPGGGVPGAGVPGVGVPGAGVPGGGVPGAGVPGGGVPGAGVPGGGVPGAGVPGGGVPGAGVPGGGVPGAGVPGGGVPGAGVPGGGVPGAGVPGVGVPGAGVPGGGVPGAGVPGGGVPGAGVPGGGVPGAGVPGGGVPGAGVPGGGVPGAGVPGGGVPGAGVPGGGVPGAGVPGVGVPGAGVPGGGVPGAGVPGGGVPGAGVPGGGVPGAGVPGGGVPGAGVPGGGVPGAGVPGGGVPGAGVPGGGVPGAGVPGVGVPGAGVPGGGVPGAGVPGGGVPGAGVPGGGVPGAGVPGGGVPGAGVPGGGVPGAGVPGGGVPGAGVPGGGVPGAGVPGVGVPGAGVPGGGVPGAGVPGGGVPGAGVPGGGVPGAGVPGGGVPGAGVPGGGVPGAGVPGGGVPGAGVPGGGVPGAGVPGWPGSGAPMAEGGGQNHHEVVKFMDVYQRSYCHPIETLVDIFQEYPDEIEYIFKPSCVPLMRCGGCCNDEGLECVPTEESNITMQIMRIKPHQGQHIGEMSFLQHNKCECRPKKDRARQEKCDKPRR
modifications: synthetic ELP-VEGF sequences
notes: free recombinant vascular endothelial growth factor VEGF121, comparator
stimulation of HUVEC proliferation [2]: stimulated HUVEC proliferation with equal potency
terminal plasma half-life ([3]; bolus IV, 2-compartment PK model): approximately 30 minutes
organ accumulation, ex vivo whole organ fluorescence imaging ([3]; four hours after the infusion): accumulated most highly in the kidneys and the liver

B2: ELP: elastin-like polypeptide drug carrier, repeats of VPGXG; unmodified carrier, fluorescently labeled for the tests (protein)
chain: VGVPGAGVPGGGVPGAGVPGGGVPGAGVPGGGVPGAGVPGGGVPGAGVPGGGVPGAGVPGGGVPGAGVPGGGVPGAGVPGVGVPGAGVPGGGVPGAGVPGGGVPGAGVPGGGVPGAGVPGGGVPGAGVPGGGVPGAGVPGGGVPGAGVPGGGVPGAGVPGVGVPGAGVPGGGVPGAGVPGGGVPGAGVPGGGVPGAGVPGGGVPGAGVPGGGVPGAGVPGGGVPGAGVPGGGVPGAGVPGVGVPGAGVPGGGVPGAGVPGGGVPGAGVPGGGVPGAGVPGGGVPGAGVPGGGVPGAGVPGGGVPGAGVPGGGVPGAGVPGVGVPGAGVPGGGVPGAGVPGGGVPGAGVPGGGVPGAGVPGGGVPGAGVPGGGVPGAGVPGGGVPGAGVPGGGVPGAGVPGVGVPGAGVPGGGVPGAGVPGGGVPGAGVPGGGVPGAGVPGGGVPGAGVPGGGVPGAGVPGGGVPGAGVPGGGVPGAGVPGVGVPGAGVPGGGVPGAGVPGGGVPGAGVPGGGVPGAGVPGGGVPGAGVPGGGVPGAGVPGGGVPGAGVPGGGVPGAGVPGVGVPGAGVPGGGVPGAGVPGGGVPGAGVPGGGVPGAGVPGGGVPGAGVPGGGVPGAGVPGGGVPGAGVPGGGVPGAGVPGGGVPGAGVPGGGVPGAGVPGGGVPGAGVPGGGVPGAGVPGGGVPGAGVPGGGVPGAGVPGGGVPGAGVPGGGVPGAGVPGVGVPGAGVPGGGVPGAGVPGGGVPGAGVPGGGVPGAGVPGGGVPGAGVPGGGVPGAGVPGGGVPGAGVPGGGVPGAGVPG
modifications: Alexa633 label; synthetic ELP
notes: elastin-like polypeptide drug carrier, repeats of VPGXG; unmodified carrier, fluorescently labeled for the tests
accumulation in trophoblast cells [4]: accumulated in the cytoplasm of trophoblast cells
polypeptide in interior of chorionic villi (fetal blood) [4]: contained no ELP or SynB1-ELP
placental accumulation relative to other organs ([5]; 4 h after 100 mg/kg IV): nearly equivalent to levels in the liver
level in pups, ex vivo fluorescence imaging ([5]; 4 h after 100 mg/kg IV, GD14): barely detectable over autofluorescence in the pups
placental accumulation, ex vivo fluorescence imaging ([5]; 4 h after 100 mg/kg IV, GD14): accumulated strongly in the placenta
placental accumulation, frozen sections, fluorescence slide scanner ([5]; 4 h after IV injection): accumulated at high levels in the placenta relative to autofluorescence controls
polypeptide in pups, frozen sections, fluorescence slide scanner ([5]; 4 h after IV injection): no polypeptide was detectable in the pups
intraplacental distribution ([5]; frozen sections): accumulated at high levels throughout the placenta
half-life ([5]; pregnant rats GD14, 100 mg/kg IV): Four hours after injection, which is about one half-life
total signal in degraded bands <50 kDa [6]: less than 20%
steady state plasma level ([7]; 30 mg/kg/day IP minipump GD14-GD19): 33.94 µg/mL
placental accumulation ([7]; GD19, five days continuous infusion): accumulated at high levels in the placenta
level in pups ([7]; GD19, five days continuous infusion, 30 mg/kg/day): undetectable over autofluorescence in the pups
level in pups [8]: Neither peptide was detectable in the pups
